{
  "source": "patent US20030113320A1",
  "about": "(BURNHAM INSTITUTE, published 2003)",
  "binders": {"B1": {"name": "CNGRC cyclic peptide (SEQ ID NO:8) (peptide)", "peptide": "CNGRC", "modifications": "also: cyclized (cyclic peptide), ring type not given here", "notes": "also called NGR cyclic peptide; soluble CNGRC peptide"}, "B2": {"name": "CARAC peptide (SEQ ID NO:221) (peptide)", "peptide": "CARAC", "notes": "also called negative control CARAC; control peptide"}},
  "key": {"[1]": {"target": "T1, CD13/aminopeptidase N on CD13-transfected cells (Molt-4/CD13, MDA-MB-435/CD13) (Homo sapiens (Human), UniProt P15144 2-967)", "T1 construct": "The parental lines express no endogenous CD13; The transfected construct is not described; also called CD13/APN", "T1 sequence (P15144 2-967 R86Q limits assumed)": "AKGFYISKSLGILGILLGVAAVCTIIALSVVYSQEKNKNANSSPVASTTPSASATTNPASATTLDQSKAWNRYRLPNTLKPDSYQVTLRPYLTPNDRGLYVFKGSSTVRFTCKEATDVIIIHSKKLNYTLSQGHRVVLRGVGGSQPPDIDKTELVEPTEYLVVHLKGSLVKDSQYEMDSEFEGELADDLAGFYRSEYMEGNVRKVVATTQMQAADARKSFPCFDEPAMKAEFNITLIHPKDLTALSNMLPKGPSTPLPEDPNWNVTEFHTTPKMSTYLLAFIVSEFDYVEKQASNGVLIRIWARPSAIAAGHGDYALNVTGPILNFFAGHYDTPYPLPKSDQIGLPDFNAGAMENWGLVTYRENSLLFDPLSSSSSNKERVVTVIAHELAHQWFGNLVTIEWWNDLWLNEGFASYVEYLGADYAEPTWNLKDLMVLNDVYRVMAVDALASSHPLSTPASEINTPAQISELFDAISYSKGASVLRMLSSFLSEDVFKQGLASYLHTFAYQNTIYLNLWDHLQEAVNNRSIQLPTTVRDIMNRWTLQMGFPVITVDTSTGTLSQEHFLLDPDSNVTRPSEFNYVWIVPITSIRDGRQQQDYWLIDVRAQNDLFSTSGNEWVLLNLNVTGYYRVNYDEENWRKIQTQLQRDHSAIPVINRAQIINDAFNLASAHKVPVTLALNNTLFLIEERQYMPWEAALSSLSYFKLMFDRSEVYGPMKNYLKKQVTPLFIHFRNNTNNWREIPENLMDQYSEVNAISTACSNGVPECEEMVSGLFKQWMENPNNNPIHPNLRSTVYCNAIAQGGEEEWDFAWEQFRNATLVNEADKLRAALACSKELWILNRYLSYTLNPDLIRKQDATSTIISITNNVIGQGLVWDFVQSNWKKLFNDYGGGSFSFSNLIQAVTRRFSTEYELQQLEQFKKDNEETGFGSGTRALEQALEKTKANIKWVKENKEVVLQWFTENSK", "experiment": "competition with CNGRC phage on CD13-transfected cells; peptide at 250 and 500 ug/ml", "description": "The CNGRC phage binds specifically to cells transfected with CD13. […] Briefly, mock transfected Molt-4 cells (“Molt-4/mock”) and cells transfected with CD13 (“Molt-4/CD13”) were incubated with CNGRC (SEQ ID NO:8) phage or with control Fd phage lacking an insert (2× 10^9 transducing units (TU) per sample). […] After extensive washing, bound phage were quantitated by infection of bacteria as described above."}, "[2]": {"target": "T2, CD13/aminopeptidase N (CD13/APN), isolated from octylglucoside cell extracts (Homo sapiens (Human), UniProt P15144 2-967)", "T2 construct": "The source cell lines are human; also called NGR receptor; immuno-isolated CD13", "T2 sequence (P15144 2-967 R86Q limits assumed)": "as above", "experiment": "affinity chromatography of Molt-4/CD13, MDA-MB-435/CD13 or HL-60 cell extracts on CNGRC-SEPHAROSE", "description": "(§1) To further characterize the interaction of CD13/APN with the NGR peptide, affinity chromatography on the CNGRC peptide was performed. The column was prepared by coupling the CNGRC peptide to SEPHAROSE (Pharmacia; Piscataway N.J.). Elution was effected with soluble CNGRC peptide. Experiments were performed using HL-60 cell extracts because they are known to express CD13/APN without other proteases that could interfere in the APN assay (Xu et al., supra (1997)). Thus, in HL-60 cell extracts, all detectable cell surface enzymatic activity is inhibitable by anti-CD13 blocking antibodies, assuring specificity. Extracts of Molt-4 and MDA-MB-435 cells transfected with CD13/APN were also characterized by using affinity chromatography, with extracts of the mock transfected counterparts used as negative controls.\n(§2) Briefly, CD13 was detected by testing aliquots of each fraction for the presence of CD13 immunoreactivity in ELISA with the anti-CD13 monoclonal antibody WM15, using normal mouse IgG as a negative control. The fractions were also analyzed for CD13 enzymatic activity using AlapNA as the substrate. […] Furthermore, no CD13 activity was recovered from the CNGRC column when the extract fractionated was derived from CD13-negative cells (see FIG. 6)."}, "[3]": {"target": "T2, CD13/aminopeptidase N (CD13/APN), …", "experiment": "peptide affinity chromatography of cell extracts", "description": "as §1, §2"}},
  "note": "Where no end group is shown, it is not given here.",
  "data": [
    {"binder": "B1", "values": [
      {"measurement": "binding result", "setting": "[1]", "result": "binds"},
      {"measurement": "binding result", "setting": "[2]", "result": "binds"}
    ]},
    {"binder": "B2", "values": [
      {"measurement": "binding result", "setting": "[3]", "result": "no binding"}
    ]}
  ]
}
